{"source": "paper PMC4771075", "molecular_target": "Dyn A(1-11)NH2 (Rattus norvegicus)", "experiment": "radioligand", "data": [{"binder": "KOR, P34975 (protein) MESPIQIFRGEPGPTCAPSACLLPNSSSWFPNWAESDSNGSVGSEDQQLEPAHISPAIPVIITAVYSVVFVVGLVGNSLVMFVIIRYTKMKTATNIYIFNLALADALVTTTMPFQSAVYLMNSWPFGDVLCKIVISIDYYNMFTSIFTLTMMSVDRYIAVCHPVKALDFRTPLKAKIINICIWLLASSVGISAIVLGGTKVREDVDVIECSLQFPDDEYSWWDLFMKICVFVFAFVIPVLIIIVCYTLMILRLKSVRLLSGSREKDRNLRRITKLVLVVVAVFIICWTPIHIFILVEALGSTSHSTAVLSSYYFCIALGYTNSSLNPVLYAFLDENFKRCFRDFCFPIKMRMERQSTNRVRNTVQDPASMRDVGGMNKPV", "values": [{"measurement": "Ki", "result": 2.6, "unit": "nM"}]}]}
